Laboratory results taken from patent publication US20120316071A1 (published 2012).
Changes are numbered by the printed parent chain. Numbers in names are those of the source.

B1: Fab VH5-51_IGHD5-18*01>3_IGHJ4*01 G100K/G104T G24T/S28R/G35V (H:KT TRV) & V3-4_IGLJ1*01 (Fab, V domains shown)
VH: EVQLVQSGAEVKKPGESLKISCKTSGYRFTSYWIVWVRQMPGKGLEWMGIIYPGDSDTRYSPSFQGQVTISADKSISTAYLQWSSLKASDTAMYYCARRKYSYTYDYFDYWGQGTLVTVSS
VL: QTVVTQEPSFSVSPGGTVTLTCGLSSGSVSTSYYPSWYQQTPGQAPRTLIYSTNTRSSGVPDRFSGSILGNKAALTITGAQADDESDYYCVLYMGSGISYVFGTGTKVTVL
notes: Fab with the parent (unmutated) light chain; expressed from plasmid A (CH1, His6 and Flag tags) and plasmid E (lambda CL); also called H:KT TRV & L:wt
B2: Fab VH5-51_IGHD5-18*01>3_IGHJ4*01 G100K/G104T G24T/S28R/G35V (H:KT TRV) & V3-4_IGLJ1*01 M94T (Fab, V domains shown)
VH: B1 VH
VL: B1 VL with M94T
notes: Fab; expressed from plasmid A (CH1, His6 and Flag tags) and plasmid E (lambda CL)
B3: Fab VH5-51_IGHD5-18*01>3_IGHJ4*01 G100K/G104T G24T/S28R/G35V (H:KT TRV) & V3-4_IGLJ1*01 S96W (Fab, V domains shown)
VH: B1 VH
VL: B1 VL with S96W
notes: as for B2
B4: Fab VH5-51_IGHD5-18*01>3_IGHJ4*01 G100K/G104T G24T/S28R/G35V (H:KT TRV) & V3-4_IGLJ1*01 M94S (Fab, V domains shown)
VH: B1 VH
VL: B1 VL with M94S
notes: as for B2
B5: Fab VH5-51_IGHD5-18*01>3_IGHJ4*01 G100K/G104T G24T/S28R/G35V (H:KT TRV) & V3-4_IGLJ1*01 S57A (Fab, V domains shown)
VH: B1 VH
VL: B1 VL with S57A
notes: as for B2
B6: Fab VH5-51_IGHD5-18*01>3_IGHJ4*01 G100K/G104T G24T/S28R/G35V (H:KT TRV) & V3-4_IGLJ1*01 S58A (Fab, V domains shown)
VH: B1 VH
VL: B1 VL with S58A
notes: as for B2
B7: Fab VH5-51_IGHD5-18*01>3_IGHJ4*01 G100K/G104T G24T/S28R/G35V (H:KT TRV) & V3-4_IGLJ1*01 M94D (Fab, V domains shown)
VH: B1 VH
VL: B1 VL with M94D
notes: as for B2
B8: Fab VH5-51_IGHD5-18*01>3_IGHJ4*01 G100K/G104T G24T/S28R/G35V (H:KT TRV) & V3-4_IGLJ1*01 M94R (Fab, V domains shown)
VH: B1 VH
VL: B1 VL with M94R
notes: as for B2
B9: Fab VH5-51_IGHD5-18*01>3_IGHJ4*01 G100K/G104T G24T/S28R/G35V (H:KT TRV) & V3-4_IGLJ1*01 N54A (Fab, V domains shown)
VH: B1 VH
VL: B1 VL with N54A
notes: as for B2
B10: Fab VH5-51_IGHD5-18*01>3_IGHJ4*01 G100K/G104T G24T/S28R/G35V (H:KT TRV) & V3-4_IGLJ1*01 M94L (Fab, V domains shown)
VH: B1 VH
VL: B1 VL with M94L
notes: as for B2
B11: Fab VH5-51_IGHD5-18*01>3_IGHJ4*01 G100K/G104T G24T/S28R/G35V (H:KT TRV) & V3-4_IGLJ1*01 V91G (Fab, V domains shown)
VH: B1 VH
VL: B1 VL with V91G
notes: as for B2
B12: Fab VH5-51_IGHD5-18*01>3_IGHJ4*01 G100K/G104T G24T/S28R/G35V (H:KT TRV) & V3-4_IGLJ1*01 V91E (Fab, V domains shown)
VH: B1 VH
VL: B1 VL with V91E
notes: as for B2
B13: Fab VH5-51_IGHD5-18*01>3_IGHJ4*01 G100K/G104T G24T/S28R/G35V (H:KT TRV) & V3-4_IGLJ1*01 T55A (Fab, V domains shown)
VH: B1 VH
VL: B1 VL with T55A
notes: as for B2
B14: Fab VH5-51_IGHD5-18*01>3_IGHJ4*01 G100K/G104T G24T/S28R/G35V (H:KT TRV) & V3-4_IGLJ1*01 R56A (Fab, V domains shown)
VH: B1 VH
VL: B1 VL with R56A
notes: as for B2
B15: Fab VH5-51_IGHD5-18*01>3_IGHJ4*01 G100K/G104T G24T/S28R/G35V (H:KT TRV) & V3-4_IGLJ1*01 V91A (Fab, V domains shown)
VH: B1 VH
VL: B1 VL with V91A
notes: as for B2
B16: Fab VH5-51_IGHD5-18*01>3_IGHJ4*01 G100K/G104T G24T/S28R/G35V (H:KT TRV) & V3-4_IGLJ1*01 M94G (Fab, V domains shown)
VH: B1 VH
VL: B1 VL with M94G
notes: as for B2
B17: Fab VH5-51_IGHD5-18*01>3_IGHJ4*01 G100K/G104T G24T/S28R/G35V (H:KT TRV) & V3-4_IGLJ1*01 M94E (Fab, V domains shown)
VH: B1 VH
VL: B1 VL with M94E
notes: as for B2
B18: Fab VH5-51_IGHD5-18*01>3_IGHJ4*01 G100K/G104T G24T/S28R/G35V (H:KT TRV) & V3-4_IGLJ1*01 M94N (Fab, V domains shown)
VH: B1 VH
VL: B1 VL with M94N
notes: as for B2
B19: Fab VH5-51_IGHD5-18*01>3_IGHJ4*01 G100K/G104T G24T/S28R/G35V (H:KT TRV) & V3-4_IGLJ1*01 M94A (Fab, V domains shown)
VH: B1 VH
VL: B1 VL with M94A
notes: as for B2
B20: Fab VH5-51_IGHD5-18*01>3_IGHJ4*01 G100K/G104T G24T/S28R/G35V (H:KT TRV) & V3-4_IGLJ1*01 M94V (Fab, V domains shown)
VH: B1 VH
VL: B1 VL with M94V
notes: as for B2
B21: Fab VH5-51_IGHD5-18*01>3_IGHJ4*01 G100K/G104T G24T/S28R/G35V (H:KT TRV) & V3-4_IGLJ1*01 M94F (Fab, V domains shown)
VH: B1 VH
VL: B1 VL with M94F
notes: as for B2
B22: Fab VH5-51_IGHD5-18*01>3_IGHJ4*01 G100K/G104T G24T/S28R/G35V (H:KT TRV) & V3-4_IGLJ1*01 S96G (Fab, V domains shown)
VH: B1 VH
VL: B1 VL with S96G
notes: as for B2
B23: Fab VH5-51_IGHD5-18*01>3_IGHJ4*01 G100K/G104T G24T/S28R/G35V (H:KT TRV) & V3-4_IGLJ1*01 M94P (Fab, V domains shown)
VH: B1 VH
VL: B1 VL with M94P
notes: as for B2
B24: Fab VH5-51_IGHD5-18*01>3_IGHJ4*01 G100K/G104T G24T/S28R/G35V (H:KT TRV) & V3-4_IGLJ1*01 V91C (Fab, V domains shown)
VH: B1 VH
VL: B1 VL with V91C
notes: as for B2
B25: Fab VH1-46_IGHD6-6*01_IGHJ1*01 S102A/S103P/S104F/H111F (APFF) & L6_IGKJ1*01 S31Q (Fab, V domains shown)
VH: QVQLVQSGAEVKKPGASVKVSCKASGYTFTSYYMHWVRQAPGQGLEWMGIINPSGGSTSYAQKFQGRVTMTRDTSTSTVYMELSSLRSEDTAVYYCAREEYAPFSAEYFQFWGQGTLVTVSS
VL: EIVLTQSPATLSLSPGERATLSCRASQSVSQYLAWYQQKPGQAPRLLIYDASNRATGIPARFSGSGSGTDFTLTISSLEPEDFAVYYCQQRSNWPPWTFGQGTKVEIKR
notes: Fab made in E. coli; The constant parts (CH1 with His6 and Flag tags from plasmid A, kappa CL from plasmid C) are not added here; also called APFF & S31Q
B26: Fab VH1-46_IGHD6-6*01_IGHJ1*01 S102A/S103P/S104F/H111F (APFF) & L6_IGKJ1*01 S31V (Fab, V domains shown)
VH: B25 VH
VL: B25 VL with Q31V
notes: Fab made in E. coli; The constant parts (CH1 with His6 and Flag tags from plasmid A, kappa CL from plasmid C) are not added here; also called APFF & S31V
B27: Fab VH1-46_IGHD6-6*01_IGHJ1*01 S102A/S103P/S104F/H111F (APFF) & L6_IGKJ1*01 S31R (Fab, V domains shown)
VH: B25 VH
VL: B25 VL with Q31R
notes: Fab made in E. coli; The constant parts (CH1 with His6 and Flag tags from plasmid A, kappa CL from plasmid C) are not added here; also called APFF & S31R
B28: Fab VH1-46_IGHD6-6*01_IGHJ1*01 S102A/S103P/S104F/H111F (APFF) & L6_IGKJ1*01 S31Y (Fab, V domains shown)
VH: B25 VH
VL: B25 VL with Q31Y
notes: Fab made in E. coli; The constant parts (CH1 with His6 and Flag tags from plasmid A, kappa CL from plasmid C) are not added here; also called APFF & S31Y
B29: Fab VH1-46_IGHD6-6*01_IGHJ1*01 S102A/S103P/S104F/H111F (APFF) & L6_IGKJ1*01 S31T (Fab, V domains shown)
VH: B25 VH
VL: B25 VL with Q31T
notes: Fab made in E. coli; The constant parts (CH1 with His6 and Flag tags from plasmid A, kappa CL from plasmid C) are not added here; also called APFF & S31T

target: T1, Recombinant Human DLL4 (human, UniProt Q9NR61 27-524); experiment: ELISA, DLL4 coated on the plate, Fab at 100 nM, signal minus blank
T1 construct: Bought recombinant human DLL4 (R&D Systems Cat#1506-D4/CF); also called delta-like protein 4; Delta-like 4

Row | Binder | ELISA Signal-blank (100 nM Fab)
1 | B1 | 0.393
2 | B2 | 0.395
3 | B3 | 0.261
4 | B4 | 0.195
5 | B5 | 0.598
6 | B6 | 0.451
7 | B7 | 0.07
8 | B8 | 0.197
9 | B9 | 0.318
10 | B10 | 0.388
11 | B11 | 0.248
12 | B12 | 0.152
13 | B13 | 0.382
14 | B14 | 0.442
15 | B15 | 0.529
16 | B16 | 0.199
17 | B17 | 0.171
18 | B18 | 0.205
19 | B19 | 0.216
20 | B20 | 0.315
21 | B21 | 0.317
22 | B22 | 0.562
23 | B23 | 0.256
24 | B24 | 0.625

target: T2, Recombinant Human DLL4 (delta-like protein 4) (human, UniProt Q9NR61 27-524); experiment: ECL (MSD) multispot binding assay, antigen spotted on plate, Fab in solution;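 further: purified Fab incubated 1 h at 20 °C, detected via TAG-labelled antibody electrochemiluminescence, antigen spot compared with the blank in the same well, ratio at least 4 counted as hit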
T2 construct: Bought recombinant human DLL4 (R&D Systems Cat#1506-D4/CF); also called rHuman DLL4

Row | Binder | ECL signal | Signal/Blank
25 | B25 | 165000 | 406
26 | B26 | – | 511
27 | B27 | 166000 | 558
28 | B28 | 188000 | 662
29 | B29 | 191000 | 576
